We go through one substance from article PMC6887548.

The assay concerns the target MCM helicase hexamer (Mcm2-7) (yeast) (UniProt P29469). Put plainly: negative-stain EM.

“ORC variant lacking the N-terminal 119 amino acids of Orc6, P54784;P32833;P54790;P54791;P50874;P38826” had a decrease of MO formation against wild type ORC of 50%.
